Experimental data from the Immune Epitope Database (IEDB).
Each block holds one sequence with its values, some of them ahead of it.

Assays:
HLA-A*80:01 = assay: IEDB peptide-MHC binding, purified MHC/direct/fluorescence; filed as Kd, often an IC50 or EC50 that approximates it; ≥ and ≤ were set here for values at or beyond the usual limits of such assays
HLA-A*26:02 [1] = assay: as above; conditions: source organism: Yellow fever virus
HLA-A*01:01 = assay: as above
HLA-B*40:01 = assay: as above; conditions: source organism: Mycobacterium tuberculosis
HLA-A*69:01 = assay: as above
HLA-B*48:01 = assay: as above
HLA-B*08:03 = assay: as above; conditions: source organism: Mycobacterium tuberculosis str. Haarlem
HLA-A*68:02 = assay: as above
HLA-A*11:01 [2] = assay: as above
HLA-B*27:05 [3] = assay: as above; conditions: source organism: Mycobacterium tuberculosis
HLA-B*08:02 = assay: as above
HLA-B*58:01 = assay: as above
HLA-A*31:01 [4] = assay: as above
HLA-B*46:01 = assay: as above
HLA-B*08:01 = assay: as above
HLA-A*02:01 [5] = assay: as above; conditions: source organism: Mycobacterium tuberculosis
HLA-B*57:01 = assay: as above
HLA-B*15:17 [6] = assay: as above; conditions: source organism: Mycobacterium tuberculosis
HLA-B*07:02 = assay: as above
HLA-B*18:01 [7] = assay: IEDB peptide-MHC binding, purified MHC/competitive/fluorescence; filed as Kd, often an IC50 or EC50 that approximates it; ≥ and ≤ were set here for values at or beyond the usual limits of such assays; conditions: source organism: Mycobacterium tuberculosis variant bovis BCG str. Pasteur 1173P2
HLA-A*26:03 = assay: as above; conditions: source organism: Mycobacterium tuberculosis variant bovis BCG str. Pasteur 1173P2
HLA-A*02:06 = assay: as above; conditions: source organism: Mycobacterium tuberculosis variant bovis BCG str. Pasteur 1173P2
HLA-B*15:01 [8] = assay: as above; conditions: source organism: Mycobacterium tuberculosis variant bovis BCG str. Pasteur 1173P2
HLA-A*26:02 [9] = assay: as above
HLA-B*14:02 = assay: IEDB peptide-MHC binding, purified MHC/direct/fluorescence; filed as Kd, often an IC50 or EC50 that approximates it; ≥ and ≤ were set here for values at or beyond the usual limits of such assays; conditions: source organism: Homo sapiens
HLA-B*18:01 [10] = assay: as above; conditions: source organism: Mycobacterium tuberculosis
HLA-B*51:01 = assay: as above; conditions: source organism: Mycobacterium tuberculosis
HLA-B*15:01 [11] = assay: as above
HLA-A*26:01 [12] = assay: as above; conditions: source organism: Mycobacterium tuberculosis str. Haarlem
HLA-A*03:01 [13] = assay: as above; conditions: source organism: Mycobacterium tuberculosis
HLA-B*39:01 = assay: IEDB peptide-MHC binding, purified MHC/competitive/fluorescence; filed as Kd, often an IC50 or EC50 that approximates it; ≥ and ≤ were set here for values at or beyond the usual limits of such assays
HLA-B*15:09 = assay: as above
HLA-C*07:02 = assay: IEDB peptide-MHC binding, purified MHC/direct/fluorescence; filed as Kd, often an IC50 or EC50 that approximates it; ≥ and ≤ were set here for values at or beyond the usual limits of such assays; conditions: source organism: Variola virus
HLA-B*15:03 = assay: IEDB peptide-MHC binding, purified MHC/competitive/radioactivity; filed as Kd, often an IC50 or EC50 that approximates it; ≥ and ≤ were set here for values at or beyond the usual limits of such assays; conditions: source organism: Vaccinia virus WR
HLA-B*27:05 [14] = assay: IEDB peptide-MHC binding, purified MHC/competitive/fluorescence; filed as Kd, often an IC50 or EC50 that approximates it; ≥ and ≤ were set here for values at or beyond the usual limits of such assays; conditions: source organism: Variola virus
HLA-A*02:01 [15] = assay: as above; conditions: source organism: Variola virus
HLA-A*26:01 [16] = assay: as above; conditions: source organism: Variola virus
HLA-B*15:17 [17] = assay: as above; conditions: source organism: Variola virus
HLA-A*11:01 [18] = assay: as above; conditions: source organism: Mycobacterium leprae
HLA-A*31:01 [19] = assay: as above; conditions: source organism: Mycobacterium leprae
HLA-A*03:01 [20] = assay: as above; conditions: source organism: Mycobacterium leprae
[21] = source organism: Camelpox virus CMS
[22] = source organism: Mycobacterium tuberculosis
[23] = source organism: Mycobacterium tuberculosis str. Haarlem
[24] = source organism: Mycobacterium tuberculosis C
[25] = source organism: Camelpox virus M-96
[26] = source organism: Mycobacterium leprae

Sequence: EVDQTKIQY
Kd (HLA-A*80:01; source organism: Yellow fever virus): ≥ 20 µM | Kd (HLA-A*26:02 [1]): 1.61 µM

Sequence: ITDFNIDTY
Kd (HLA-A*80:01; [21]): 0.307 µM | Kd (HLA-A*01:01; [21]): ≤ 0.001 µM

Sequence: KVMVICYAY
Kd (HLA-B*40:01): ≥ 20 µM | Kd (HLA-A*69:01; [22]): ≥ 20 µM | Kd (HLA-B*48:01; [22]): ≥ 20 µM | Kd (HLA-B*08:03): ≥ 20 µM | Kd (HLA-A*68:02; [22]): ≥ 20 µM | Kd (HLA-A*11:01 [2]; [22]): 0.492 µM | Kd (HLA-B*27:05 [3]): ≥ 20 µM | Kd (HLA-B*08:02; [23]): ≥ 20 µM | Kd (HLA-B*58:01; [22]): 0.705 µM | Kd (HLA-A*31:01 [4]; [22]): 4.16 µM | Kd (HLA-B*46:01; [22]): ≥ 20 µM | Kd (HLA-B*08:01; [23]): ≥ 20 µM | Kd (HLA-A*02:01 [5]): ≥ 20 µM | Kd (HLA-B*57:01; [22]): ≥ 20 µM | Kd (HLA-A*01:01; [22]): 11.8 µM | Kd (HLA-B*15:17 [6]): 6.9 µM | Kd (HLA-B*07:02; [22]): ≥ 20 µM | Kd (HLA-B*18:01 [7]): 3.29 µM | Kd (HLA-A*26:03): ≥ 20 µM | Kd (HLA-A*02:06): ≥ 20 µM | Kd (HLA-B*15:01 [8]): ≥ 20 µM | Kd (HLA-A*26:02 [9]; source organism: Mycobacterium tuberculosis variant bovis BCG str. Pasteur 1173P2): ≥ 20 µM

Kd (HLA-B*14:02): 0.133 µM
Sequence: LQRIHAEI

Sequence: RPAPATGAL
Kd (HLA-B*40:01): ≥ 20 µM | Kd (HLA-A*69:01; [22]): 0.739 µM | Kd (HLA-B*48:01; [22]): ≥ 20 µM | Kd (HLA-B*18:01 [10]): ≥ 20 µM | Kd (HLA-A*11:01 [2]; [22]): ≥ 20 µM | Kd (HLA-B*27:05 [3]): ≥ 20 µM | Kd (HLA-B*08:02; [23]): ≥ 20 µM | Kd (HLA-B*51:01): ≥ 20 µM | Kd (HLA-B*58:01; [22]): ≥ 20 µM | Kd (HLA-A*31:01 [4]; [22]): ≥ 20 µM | Kd (HLA-B*15:01 [11]; [22]): ≥ 20 µM | Kd (HLA-B*46:01; [22]): ≥ 20 µM | Kd (HLA-B*08:01; [23]): ≥ 20 µM | Kd (HLA-A*02:01 [5]): ≥ 20 µM | Kd (HLA-A*26:01 [12]): ≥ 20 µM | Kd (HLA-A*03:01 [13]): ≥ 20 µM | Kd (HLA-B*57:01; [22]): ≥ 20 µM | Kd (HLA-A*01:01; [22]): ≥ 20 µM | Kd (HLA-B*15:17 [6]): ≥ 20 µM | Kd (HLA-B*39:01; [24]): 0.0042 µM | Kd (HLA-B*15:09; [24]): 0.0786 µM

Sequence: SQIETGTPF
Kd (HLA-A*69:01; [25]): ≥ 20 µM | Kd (HLA-B*48:01; [25]): 1.65 µM | Kd (HLA-A*68:02; [25]): ≥ 20 µM | Kd (HLA-A*11:01 [2]; [25]): ≥ 20 µM | Kd (HLA-B*08:02; source organism: Variola virus): ≥ 20 µM | Kd (HLA-B*58:01; [25]): ≥ 20 µM | Kd (HLA-A*31:01 [4]; [25]): ≥ 20 µM | Kd (HLA-B*15:01 [11]; [25]): 0.014 µM | Kd (HLA-B*46:01; [25]): 3.06 µM | Kd (HLA-B*08:01; source organism: Variola virus): ≥ 20 µM | Kd (HLA-C*07:02): ≥ 20 µM | Kd (HLA-B*57:01; [25]): ≥ 20 µM | Kd (HLA-A*01:01; [25]): ≥ 20 µM | Kd (HLA-B*07:02; [25]): ≥ 20 µM | Kd (HLA-B*15:03): 0.00133 µM | Kd (HLA-B*27:05 [14]): ≥ 20 µM | Kd (HLA-B*39:01; source organism: Variola virus): 0.0146 µM | Kd (HLA-A*02:01 [15]): ≥ 20 µM | Kd (HLA-A*26:01 [16]): 1.79 µM | Kd (HLA-B*15:09; source organism: Variola virus): 0.0673 µM | Kd (HLA-A*26:02 [9]; source organism: Variola virus): 0.0008 µM | Kd (HLA-B*15:17 [17]): ≥ 20 µM

Sequence: YPACEAIGL
Kd (HLA-B*40:01): ≥ 20 µM | Kd (HLA-A*69:01; [22]): 0.0905 µM | Kd (HLA-B*48:01; [22]): ≥ 20 µM | Kd (HLA-B*18:01 [10]): 0.166 µM | Kd (HLA-B*27:05 [3]): ≥ 20 µM | Kd (HLA-B*51:01): ≥ 20 µM | Kd (HLA-B*58:01; [22]): ≥ 20 µM | Kd (HLA-B*15:01 [11]; [22]): ≥ 20 µM | Kd (HLA-B*46:01; [22]): ≥ 20 µM | Kd (HLA-B*08:01; [23]): ≥ 20 µM | Kd (HLA-A*02:01 [5]): ≥ 20 µM | Kd (HLA-B*57:01; [22]): ≥ 20 µM | Kd (HLA-A*01:01; [22]): ≥ 20 µM | Kd (HLA-B*15:17 [6]): ≥ 20 µM | Kd (HLA-A*11:01 [18]): 0.854 µM | Kd (HLA-A*31:01 [19]): ≥ 20 µM | Kd (HLA-B*39:01; [26]): 0.031 µM | Kd (HLA-A*03:01 [20]): ≥ 20 µM | Kd (HLA-B*15:09; [26]): 0.526 µM
